Source: article doi:10.1101/324400 (bioRxiv, 2018)

What was measured:
[1] = molecular target: Eco RNAP β' subunit (in the opsEC) (E. coli, UniProt P0A8T7); assay: cryo-EM structure
[2] = molecular target: Eco RNAP β subunit (in the opsEC) (E. coli, UniProt P0A8V2); assay: cryo-EM structure
Chain of Eco RNAP β subunit (in the opsEC) (P0A8V2 whole entry): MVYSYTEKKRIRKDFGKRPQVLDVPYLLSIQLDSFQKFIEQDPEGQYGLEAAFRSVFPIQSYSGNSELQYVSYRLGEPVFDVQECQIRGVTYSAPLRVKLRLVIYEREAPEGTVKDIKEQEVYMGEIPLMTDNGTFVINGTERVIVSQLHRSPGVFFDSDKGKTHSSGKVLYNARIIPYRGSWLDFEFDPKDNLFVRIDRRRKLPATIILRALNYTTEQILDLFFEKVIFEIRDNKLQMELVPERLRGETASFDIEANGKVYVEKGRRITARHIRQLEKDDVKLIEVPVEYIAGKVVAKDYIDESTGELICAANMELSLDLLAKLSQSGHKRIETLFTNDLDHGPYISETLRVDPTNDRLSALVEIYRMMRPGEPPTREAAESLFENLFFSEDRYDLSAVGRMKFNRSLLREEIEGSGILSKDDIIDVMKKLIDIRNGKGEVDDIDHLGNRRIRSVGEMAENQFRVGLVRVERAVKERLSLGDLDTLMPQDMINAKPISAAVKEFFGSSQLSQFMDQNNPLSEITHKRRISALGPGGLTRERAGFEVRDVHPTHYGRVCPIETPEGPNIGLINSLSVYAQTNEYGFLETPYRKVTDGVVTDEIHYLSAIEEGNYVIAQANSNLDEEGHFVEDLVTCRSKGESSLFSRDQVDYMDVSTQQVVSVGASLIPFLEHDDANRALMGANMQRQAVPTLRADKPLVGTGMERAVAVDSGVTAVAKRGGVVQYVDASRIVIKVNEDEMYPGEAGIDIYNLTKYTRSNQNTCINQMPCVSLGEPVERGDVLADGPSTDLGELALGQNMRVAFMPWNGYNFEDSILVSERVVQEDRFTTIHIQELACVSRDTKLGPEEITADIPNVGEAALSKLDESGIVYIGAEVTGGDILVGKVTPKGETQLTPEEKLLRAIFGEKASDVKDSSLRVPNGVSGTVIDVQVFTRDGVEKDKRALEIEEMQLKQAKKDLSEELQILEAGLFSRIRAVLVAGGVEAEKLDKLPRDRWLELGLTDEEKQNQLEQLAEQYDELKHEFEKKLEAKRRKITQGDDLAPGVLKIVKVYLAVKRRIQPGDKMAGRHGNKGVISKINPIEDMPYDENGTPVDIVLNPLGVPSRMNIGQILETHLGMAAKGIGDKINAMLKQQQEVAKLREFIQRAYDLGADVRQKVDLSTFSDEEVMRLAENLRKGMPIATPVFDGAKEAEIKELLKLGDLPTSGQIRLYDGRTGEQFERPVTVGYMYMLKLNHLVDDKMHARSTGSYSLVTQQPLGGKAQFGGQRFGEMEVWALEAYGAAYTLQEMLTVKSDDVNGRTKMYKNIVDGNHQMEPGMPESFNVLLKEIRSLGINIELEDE

Chain of Eco RNAP β' subunit (in the opsEC) (P0A8T7 whole entry): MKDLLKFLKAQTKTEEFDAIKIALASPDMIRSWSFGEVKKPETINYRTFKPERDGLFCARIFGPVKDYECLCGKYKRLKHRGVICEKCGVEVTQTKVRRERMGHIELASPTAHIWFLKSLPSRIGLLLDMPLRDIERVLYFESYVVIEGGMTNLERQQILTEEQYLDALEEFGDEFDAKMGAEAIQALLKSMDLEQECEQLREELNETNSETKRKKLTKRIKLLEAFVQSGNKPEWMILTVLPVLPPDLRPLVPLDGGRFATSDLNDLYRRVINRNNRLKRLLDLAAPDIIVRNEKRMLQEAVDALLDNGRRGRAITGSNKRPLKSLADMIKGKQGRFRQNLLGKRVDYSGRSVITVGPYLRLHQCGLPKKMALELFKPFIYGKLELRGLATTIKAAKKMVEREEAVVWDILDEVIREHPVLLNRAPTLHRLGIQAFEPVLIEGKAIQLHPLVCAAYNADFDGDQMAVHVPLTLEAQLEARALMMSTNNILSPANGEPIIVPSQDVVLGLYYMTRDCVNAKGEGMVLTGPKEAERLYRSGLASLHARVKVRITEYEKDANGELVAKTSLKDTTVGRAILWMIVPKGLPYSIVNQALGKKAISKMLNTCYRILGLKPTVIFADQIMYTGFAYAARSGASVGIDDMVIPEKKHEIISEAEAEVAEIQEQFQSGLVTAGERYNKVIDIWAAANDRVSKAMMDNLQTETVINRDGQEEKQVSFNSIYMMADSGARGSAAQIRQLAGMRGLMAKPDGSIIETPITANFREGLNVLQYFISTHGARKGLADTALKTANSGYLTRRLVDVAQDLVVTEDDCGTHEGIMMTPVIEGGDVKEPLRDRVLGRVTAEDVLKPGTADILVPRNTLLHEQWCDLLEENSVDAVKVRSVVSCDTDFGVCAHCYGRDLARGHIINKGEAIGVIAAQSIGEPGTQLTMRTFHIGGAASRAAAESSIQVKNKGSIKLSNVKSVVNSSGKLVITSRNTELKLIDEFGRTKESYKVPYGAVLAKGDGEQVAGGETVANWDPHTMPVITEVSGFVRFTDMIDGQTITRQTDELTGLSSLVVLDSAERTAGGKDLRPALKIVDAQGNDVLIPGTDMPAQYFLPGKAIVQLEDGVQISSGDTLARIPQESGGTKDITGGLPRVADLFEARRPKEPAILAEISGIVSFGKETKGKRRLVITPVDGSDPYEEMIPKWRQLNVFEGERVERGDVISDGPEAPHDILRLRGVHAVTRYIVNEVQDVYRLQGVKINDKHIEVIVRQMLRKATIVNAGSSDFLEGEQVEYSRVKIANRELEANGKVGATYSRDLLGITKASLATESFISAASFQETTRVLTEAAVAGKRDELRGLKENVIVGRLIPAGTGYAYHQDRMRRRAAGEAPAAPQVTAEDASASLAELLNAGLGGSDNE

B1: wild-type Eco RfaH, full length (natural protein)
chain: MQSWYLLYCKRGQLQRAQEHLERQAVNCLAPMITLEKIVRGKRTAVSEPLFPNYLFVEFDPEVIHTTTINATRGVSHFVRFGASPAIVPSAVIHQLSVYKPKDIVDPATPYPGDKVIITEGAFEGFQAIFTEPDGEARSMLLLNLINKEIKHSVKNTEFRKL
Does B1 bind [1]?
Result: binds

Does B1 bind [2]?
Result: binds
